For one molecule, binding result and Kd results are on record in US20220049002A1 (KINDRED BIOSCIENCES, published 2022).

For assay [1], the target named is Equine IL4R-ECD_C-HuFc_His6 (processed) (equine). Nature of the assay: Western blot, reducing and non-reducing SDS-PAGE. The method, then: (§1) Cross-reactivity of Clone I antibody to feline, equine, murine, and human IL4R was also investigated. Canine IL4R-ECD_C-HuFc_His6 (SEQ ID NO: 109), feline IL4R-ECD_C-HuFc_His6 (SEQ ID NO: 111), equine IL4R-ECD_C-HuFc_His6 (SEQ ID NO: 113), murine IL4R-ECD_C-HuFc_His6 (SEQ ID NO: 115), and human IL4R-ECD_C-HuFc_His6 (SEQ ID NO: 117) (0.1 μg/lane) were each separated by SDS-PAGE under reducing (+DTT) or non-reducing (−DTT) conditions. The proteins were transferred to PVDF membranes and the blots were probed with Clone I antibody (0.3 μg/mL) and visualized by goat anti-mouse IgG-HRP (FIG. 4A). As a control, the blot was stripped and probed with goat anti-human IgG Fc-HRP to visualize the presence of the IL4R-ECD proteins (FIG. 4B). Clone I antibody immunoreacted with canine IL4R-ECD_C-HuFc_His6 and to a lesser extent with feline IL4R-ECD_C-HuFc_His6 under non-reducing conditions (FIG. 4A, lanes 5 and 1, respectively).
(In general: Immunoblotting shows a protein as a band on a membrane.)

Assay [2] concerns the target Murine IL4R-ECD_C-HuFc_His6 (processed) (murine). The experiment in a line: Western blot, reducing and non-reducing SDS-PAGE. The procedure: as §1
Assay [3] concerns the target Human IL4R-ECD_C-HuFc_His6 (processed) (human). Nature of the assay: Western blot, reducing and non-reducing SDS-PAGE. The method, then:
as §1

Assay [4] addresses Canine/Human IL4R-ECD_C-HuFc_His6_Hybrid1 (canine/human hybrid). The experiment in a line: Western blot, non-reducing, 293 supernatant concentrated 3-fold.
Assay [5] concerns the target Canine/Human IL4R-ECD_C-HuFc_His6_Hybrid6 (canine/human hybrid). Described as above.
The target of assay [6] is Canine/Human IL4R-ECD_C-HuFc_His6_Hybrid13 (canine/human hybrid). Described as above.
Assay [7] concerns the target Feline IL4R-ECD_C-HuFc_His6 (processed) (feline, biotinylated in the Octet assay of Example 10). Nature of the assay: BLI (Octet): biotinylated feline IL4R-ECD_C-HuFc_His6 on streptavidin tips, Clone I 25 ug/mL, 1:1 model. The method, then: This finding was consistent with in vitro binding affinity measured by Octet Biosensor. Biotinylated feline IL4R-ECD_C-HuFc_His6 (SEQ ID NO: 111) was captured on streptavidin sensor tips. The association of Clone I antibody (25 μg/mL) and feline IL4R-ECD_C-HuFc_His6 was monitored for 600 seconds. Dissociation was monitored for 600 seconds. A buffer only blank curve was subtracted to correct for any drift. The data were fit to a 1:1 binding model using ForteBio™ data analysis software to determine the kₒₙ, koff, and the Kd. The buffer for dilutions and all binding steps was 20 mM phosphate, 150 mM NaCl, pH 7.2.
(In general: Biolayer interferometry detects binding as a change in optical thickness at a sensor tip.)

Human IL4R-ECD_C-HuFc_His6 (processed) (human), sequence (chain, as listed by the source limits assumed): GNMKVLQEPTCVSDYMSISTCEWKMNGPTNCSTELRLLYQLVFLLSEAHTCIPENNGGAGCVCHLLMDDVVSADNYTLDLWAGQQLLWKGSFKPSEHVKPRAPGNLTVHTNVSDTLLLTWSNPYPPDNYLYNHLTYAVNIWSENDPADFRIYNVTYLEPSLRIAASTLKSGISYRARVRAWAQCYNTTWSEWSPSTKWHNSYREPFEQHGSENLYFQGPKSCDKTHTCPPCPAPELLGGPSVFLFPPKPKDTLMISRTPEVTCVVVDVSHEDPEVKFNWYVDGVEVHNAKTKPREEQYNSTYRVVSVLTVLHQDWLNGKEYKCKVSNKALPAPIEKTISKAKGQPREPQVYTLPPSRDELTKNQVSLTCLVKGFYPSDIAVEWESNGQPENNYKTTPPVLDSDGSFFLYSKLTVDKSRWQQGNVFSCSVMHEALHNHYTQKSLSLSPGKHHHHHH
Murine IL4R-ECD_C-HuFc_His6 (processed) (murine), sequence (chain, as listed by the source limits assumed): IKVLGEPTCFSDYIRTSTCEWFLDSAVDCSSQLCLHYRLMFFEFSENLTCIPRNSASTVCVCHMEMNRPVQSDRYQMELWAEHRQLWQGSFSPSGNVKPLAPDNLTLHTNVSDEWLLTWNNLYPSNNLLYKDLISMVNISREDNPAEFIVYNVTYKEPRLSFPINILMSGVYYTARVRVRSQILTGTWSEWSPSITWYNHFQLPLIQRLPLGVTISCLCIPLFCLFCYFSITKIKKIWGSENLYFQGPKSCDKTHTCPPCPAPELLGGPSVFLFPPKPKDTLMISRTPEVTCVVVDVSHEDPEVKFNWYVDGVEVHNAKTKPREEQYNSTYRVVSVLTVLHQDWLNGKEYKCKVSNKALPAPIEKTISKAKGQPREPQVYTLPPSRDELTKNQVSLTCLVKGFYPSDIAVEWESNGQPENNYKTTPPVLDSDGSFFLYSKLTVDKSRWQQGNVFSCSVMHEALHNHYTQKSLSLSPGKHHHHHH
Canine/Human IL4R-ECD_C-HuFc_His6_Hybrid1 (canine/human hybrid), sequence (chain, as listed by the source limits assumed): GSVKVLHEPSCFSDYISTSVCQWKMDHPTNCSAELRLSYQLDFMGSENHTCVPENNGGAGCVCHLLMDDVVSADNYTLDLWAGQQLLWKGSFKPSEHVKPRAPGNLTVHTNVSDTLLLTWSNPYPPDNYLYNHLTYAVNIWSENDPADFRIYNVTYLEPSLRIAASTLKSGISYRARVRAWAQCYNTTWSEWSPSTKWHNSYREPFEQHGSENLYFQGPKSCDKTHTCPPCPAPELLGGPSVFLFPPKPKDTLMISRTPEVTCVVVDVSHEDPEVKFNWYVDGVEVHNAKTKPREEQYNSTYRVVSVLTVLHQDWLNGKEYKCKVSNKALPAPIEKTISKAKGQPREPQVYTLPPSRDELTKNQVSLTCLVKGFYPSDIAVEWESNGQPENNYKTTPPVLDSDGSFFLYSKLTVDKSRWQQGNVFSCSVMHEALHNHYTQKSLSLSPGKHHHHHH
Canine/Human IL4R-ECD_C-HuFc_His6_Hybrid6 (canine/human hybrid), sequence (chain, as listed by the source limits assumed): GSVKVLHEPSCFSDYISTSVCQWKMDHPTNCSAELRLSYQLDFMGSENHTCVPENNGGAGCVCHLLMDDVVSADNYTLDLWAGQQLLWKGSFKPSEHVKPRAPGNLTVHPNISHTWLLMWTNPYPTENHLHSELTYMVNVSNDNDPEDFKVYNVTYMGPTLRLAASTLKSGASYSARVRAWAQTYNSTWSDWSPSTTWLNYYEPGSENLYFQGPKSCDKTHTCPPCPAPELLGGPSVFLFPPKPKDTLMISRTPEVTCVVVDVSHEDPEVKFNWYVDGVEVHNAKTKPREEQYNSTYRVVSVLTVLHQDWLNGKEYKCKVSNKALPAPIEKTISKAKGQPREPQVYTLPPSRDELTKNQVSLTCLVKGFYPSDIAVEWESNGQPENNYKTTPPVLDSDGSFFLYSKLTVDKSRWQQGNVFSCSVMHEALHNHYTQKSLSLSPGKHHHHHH
Feline IL4R-ECD_C-HuFc_His6 (processed) (feline, biotinylated in the Octet assay of Example 10), sequence (chain, as listed by the source limits assumed): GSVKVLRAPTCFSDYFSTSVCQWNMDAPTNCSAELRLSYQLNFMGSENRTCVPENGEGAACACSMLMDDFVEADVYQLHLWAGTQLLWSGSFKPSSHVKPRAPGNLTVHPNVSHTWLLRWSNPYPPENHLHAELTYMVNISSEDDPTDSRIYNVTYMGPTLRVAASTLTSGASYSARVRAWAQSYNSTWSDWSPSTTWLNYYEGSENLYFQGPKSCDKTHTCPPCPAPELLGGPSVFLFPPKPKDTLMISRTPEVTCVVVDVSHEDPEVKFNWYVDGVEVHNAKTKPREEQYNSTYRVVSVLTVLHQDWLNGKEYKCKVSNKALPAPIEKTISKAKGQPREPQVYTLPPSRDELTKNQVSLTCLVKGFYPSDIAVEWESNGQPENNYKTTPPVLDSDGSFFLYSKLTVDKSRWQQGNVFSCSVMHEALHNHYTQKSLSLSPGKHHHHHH
Canine/Human IL4R-ECD_C-HuFc_His6_Hybrid13 (canine/human hybrid), sequence (chain, as listed by the source limits assumed): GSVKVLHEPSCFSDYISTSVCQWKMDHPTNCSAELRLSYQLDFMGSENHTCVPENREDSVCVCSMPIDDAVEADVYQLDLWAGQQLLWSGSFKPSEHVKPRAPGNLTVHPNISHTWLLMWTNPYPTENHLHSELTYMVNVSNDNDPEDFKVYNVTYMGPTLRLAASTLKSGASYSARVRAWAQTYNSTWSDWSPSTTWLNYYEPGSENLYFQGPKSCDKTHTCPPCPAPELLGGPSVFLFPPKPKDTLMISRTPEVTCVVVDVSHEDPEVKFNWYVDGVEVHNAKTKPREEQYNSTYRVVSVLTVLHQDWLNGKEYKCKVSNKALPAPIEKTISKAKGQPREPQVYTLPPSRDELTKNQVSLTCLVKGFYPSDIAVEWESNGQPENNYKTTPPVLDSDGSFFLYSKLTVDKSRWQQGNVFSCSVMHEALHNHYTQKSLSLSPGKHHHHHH
Equine IL4R-ECD_C-HuFc_His6 (processed) (equine), sequence (chain, as listed by the source limits assumed): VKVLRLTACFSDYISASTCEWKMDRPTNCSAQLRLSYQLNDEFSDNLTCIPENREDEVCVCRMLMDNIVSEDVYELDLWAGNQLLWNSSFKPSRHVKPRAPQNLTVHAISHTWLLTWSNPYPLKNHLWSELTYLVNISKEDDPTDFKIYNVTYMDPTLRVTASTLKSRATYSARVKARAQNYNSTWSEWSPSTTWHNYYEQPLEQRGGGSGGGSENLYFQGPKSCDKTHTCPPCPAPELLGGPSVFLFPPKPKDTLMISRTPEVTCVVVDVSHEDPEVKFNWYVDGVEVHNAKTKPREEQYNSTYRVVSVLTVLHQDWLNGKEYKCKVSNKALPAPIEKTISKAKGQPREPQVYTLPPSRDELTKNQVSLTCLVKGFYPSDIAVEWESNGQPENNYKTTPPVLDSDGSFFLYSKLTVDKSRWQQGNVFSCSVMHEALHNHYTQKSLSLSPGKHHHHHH

B1: Clone I antibody (mouse monoclonal anti-canine IL4R) (antibody, mouse IgG1, kappa, V domains shown)
VH: EVQLQQSGPELVKPGASVKMSCKASGYTFTSYVMHWVKQKPGQGLEWIGYINPNNDGTFYNGKFKGKATLTSDKSSSTAYMELSSLTSEDSAVYYCAAFYYGFAYWGQGTLVTVSA
VL: DIVLTQSPSSLSASLGERVSLTCRASQEISGYLSWLQQKPDGTIKRLIYAASTLDSGVPKRFSGSRSGSDFSLTISSLESEDFADYYCLQYASYPWTFGGGAKLEIKR
notes: Mouse IgG; also called anti-IL4R-mAb Clone I
As usually defined, the Kd is the concentration at which binding is half-saturated. High values mean lower affinity, low ones higher affinity. Consider B1, for which the binding result was “no binding (tested: Clone I 0.3 ug/mL; 0.1 ug/lane)” in assay [1]; “no binding (tested: Clone I 0.3 ug/mL; 0.1 ug/lane)” in assay [2]; “no binding (tested: Clone I 0.3 ug/mL; 0.1 ug/lane)” in assay [3]; “binds” in assay [4]; “binds” in assay [5]; “binds” in assay [6]. In assay [7], binding was put at a Kd of 1.1 nM.
